In data set [1] the target is T1, Arabidopsis thaliana NDPK2 C-terminal deletion mutant R230Stop (80-229aa), SEQ ID NO: 2 (Arabidopsis thaliana, UniProt O64903).
T1 sequence (O64903 80-229): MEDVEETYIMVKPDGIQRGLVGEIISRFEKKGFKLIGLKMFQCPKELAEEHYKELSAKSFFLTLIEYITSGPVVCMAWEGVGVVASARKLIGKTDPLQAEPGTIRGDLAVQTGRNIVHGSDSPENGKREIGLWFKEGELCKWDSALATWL
Kind of data set: Km of NDPK2 mutant R230Stop for nucleotides (γ-phosphate exchange activity assay, LDH-PK-coupled). To be noted: read-out: Km (ATP); dCDP as acceptor. Here is the method: (§1) In studying the phytochrome binding site in NDPK2, NDPK2 mutants, including the C-terminal deletion mutants, kinase site mutant H197C, and Kpn loop mutant P175S, were made and tested in the binding assays with the Pfr form of native oat phyA (FIG. 2A). […] To investigate the mechanism of hyperactivity of these NDPK2 mutants, the nucleotide affinity was investigated.
(§2) Full-length Arabidopsis NDPK2 was prepared as previously described (Im et al., 2004). The C-terminal deletion mutants of NDPK2 were prepared by polymerase chain reactions using following primers: R230Stop (80-229aa) with 3′ primer: 5′-[…]-[…]-3′ (SmaI) (SEQ ID NO: 8); L225Stop (80-224aa) with 3′ primer: 5′-[…]-[…]

Data set [2] addresses Arabidopsis thaliana NDPK2 C-terminal deletion mutant L225Stop (80-224aa), SEQ ID NO: 3 (Arabidopsis thaliana, UniProt O64903). To be noted: read-out: Km (ATP); dCDP as acceptor. On the procedure: as §1, §2
Data set [3] deals with T2, purified native oat phytochrome A, Pfr form, P06593.
T2 chain: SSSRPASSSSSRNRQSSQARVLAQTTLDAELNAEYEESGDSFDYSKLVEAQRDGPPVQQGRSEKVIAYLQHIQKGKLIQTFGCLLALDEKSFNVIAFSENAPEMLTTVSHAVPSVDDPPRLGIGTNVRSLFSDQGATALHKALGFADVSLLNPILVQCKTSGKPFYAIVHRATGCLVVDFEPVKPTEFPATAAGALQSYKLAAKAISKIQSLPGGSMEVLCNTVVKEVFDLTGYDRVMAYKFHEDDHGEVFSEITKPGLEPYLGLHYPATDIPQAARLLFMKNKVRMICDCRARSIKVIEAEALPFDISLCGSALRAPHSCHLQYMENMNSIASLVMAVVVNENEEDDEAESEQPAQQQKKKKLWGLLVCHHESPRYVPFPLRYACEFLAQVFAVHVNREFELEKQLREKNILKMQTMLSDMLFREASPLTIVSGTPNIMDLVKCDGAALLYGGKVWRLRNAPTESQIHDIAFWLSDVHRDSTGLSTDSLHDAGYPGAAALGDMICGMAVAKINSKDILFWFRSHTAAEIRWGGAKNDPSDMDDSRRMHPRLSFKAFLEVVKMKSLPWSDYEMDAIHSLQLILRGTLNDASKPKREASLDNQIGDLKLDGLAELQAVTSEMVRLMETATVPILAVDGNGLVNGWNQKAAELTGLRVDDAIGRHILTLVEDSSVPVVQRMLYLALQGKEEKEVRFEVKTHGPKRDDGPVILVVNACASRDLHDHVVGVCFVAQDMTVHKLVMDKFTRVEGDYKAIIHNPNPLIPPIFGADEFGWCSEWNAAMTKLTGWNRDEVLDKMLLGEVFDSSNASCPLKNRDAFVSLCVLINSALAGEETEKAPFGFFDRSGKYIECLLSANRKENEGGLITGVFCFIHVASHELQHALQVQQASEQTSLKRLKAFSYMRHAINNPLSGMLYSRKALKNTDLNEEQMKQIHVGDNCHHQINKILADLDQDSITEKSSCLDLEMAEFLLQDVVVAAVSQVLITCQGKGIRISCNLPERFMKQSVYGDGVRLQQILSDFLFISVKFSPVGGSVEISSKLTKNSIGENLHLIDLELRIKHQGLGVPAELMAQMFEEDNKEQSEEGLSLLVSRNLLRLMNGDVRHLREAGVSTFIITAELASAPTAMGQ

Data set [4] addresses T3, purified native oat phytochrome A, Pfr form (oat, UniProt P06593 2-1129).
T3 construct: also called phyA; Pfr phytochrome
T3 sequence (looked up): T2 chain
As to the kind of experiment: in vitro immunoprecipitation with native oat phyA, western blot. From the text: In studying the phytochrome binding site in NDPK2, NDPK2 mutants, including the C-terminal deletion mutants, kinase site mutant H197C, and Kpn loop mutant P175S, were made and tested in the binding assays with the Pfr form of native oat phyA (FIG. 2A). […] Moreover, no interactions between Pfr phytochrome and mutants N204Stop and S199Stop were observed. […] Results from the γ-phosphate exchange activity assay were consistent with the in vitro binding assay. […] Thus, R230Stop and L225Stop were hyperactive NDPK2 that binds normally to its upstream signaling molecule, phytochrome. To investigate the mechanism of hyperactivity of these NDPK2 mutants, the nucleotide affinity was investigated. By using two natural nucleotide substrates of NDPK2, ATP and GDP, the Kₘ values were measured to examine the relationship between the nucleotide affinity and NDPK activity in NDPK2 hyperactive mutants (Table 1). […] Therefore, it appears that a higher nucleotide affinity corresponds to a higher NDPK activity.
The in vitro binding assays of phytochrome and NDPK2 were performed by incubating 10 μg of phytochrome and 20 μg of NDPK2 in TBS buffer (50 mM Tris-HCl (pH 7.5), 150 mM NaCl), containing 5 mM MgCl₂, 2 mM dCDP, 0.1% NP40 and protease inhibitors, at 4° C. for 30 min. […]
(In general: Immunoblotting shows a protein as a band on a membrane.)

Substrate in data set [5]: Nc1nc2c(ncn2[C@@H]2O[C@H](COP(=O)(O)OP(=O)(O)O)[C@@H](O)[C@H]2O)c(=O)[nH]1
As to the kind of experiment: purified protein, by the assay type. As to conditions: other: ATP as donor; 37.0 °C.

Substrate in data set [6]: Nc1ncnc2c1ncn2[C@@H]1O[C@H](COP(=O)(O)OP(=O)(O)OP(=O)(O)O)[C@@H](O)[C@H]1O
As to the kind of experiment: Km of NDPK2 for nucleotides (γ-phosphate exchange activity assay, LDH-PK-coupled). Type of data set: biochemical, Arabidopsis thaliana. To be noted: other: dCDP as acceptor; 37.0 °C.

`Nc1ncnc2c1ncn2[C@@H]1O[C@H](COP(=O)(O)OP(=O)(O)OP(=O)(O)O)[C@@H](O)[C@H]1O` [ATP]: the values for the Km in data set [1] and in data set [2] were 211 µM and 213 µM, respectively.

B1: NDPK2 C-terminal deletion mutant S199Stop (enzyme)
chain: MEDVEETYIMVKPDGIQRGLVGEIISRFEKKGFKLIGLKMFQCPKELAEEHYKELSAKSFFLTLIEYITSGPVVCMAWEGVGVVASARKLIGKTDPLQAEPGTIRGDLAVQTGRNIVHG
notes: also called S199Stop (80-198aa)
As for B1, the “stimulation by Pfr phytochrome in the γ-phosphate exchange activity assay” value in data set [3] is “mutants K214Stop, N204Stop, and S199Stop were not stimulated under the identical conditions”. Further, the binding result in data set [4] was “no binding”.

B2: NDPK2 C-terminal deletion mutant N204Stop (enzyme)
chain: MEDVEETYIMVKPDGIQRGLVGEIISRFEKKGFKLIGLKMFQCPKELAEEHYKELSAKSFFLTLIEYITSGPVVCMAWEGVGVVASARKLIGKTDPLQAEPGTIRGDLAVQTGRNIVHGSDSPE
notes: also called N204Stop (80-203aa)
As to B2, the “stimulation by Pfr phytochrome in the γ-phosphate exchange activity assay” value in data set [3] was “mutants K214Stop, N204Stop, and S199Stop were not stimulated under the identical conditions”. Also, the binding result in data set [4] was “no binding”.

B3: NDPK2 C-terminal deletion mutant K214Stop (protein)
chain: MEDVEETYIMVKPDGIQRGLVGEIISRFEKKGFKLIGLKMFQCPKELAEEHYKELSAKSFFLTLIEYITSGPVVCMAWEGVGVVASARKLIGKTDPLQAEPGTIRGDLAVQTGRNIVHGSDSPENGKREIGLWF
As to B3, the “stimulation by Pfr phytochrome in the γ-phosphate exchange activity assay” value in data set [3] is “mutants K214Stop, N204Stop, and S199Stop were not stimulated under the identical conditions”.

B4: NDPK2 C-terminal deletion mutant R230Stop (protein)
chain: T1 sequence (O64903 80-229)
With B4, the Km in data set [5] was 0.203 mM mM. In data set [3], the “stimulation by Pfr phytochrome in the γ-phosphate exchange activity assay” value was “Mutants R230Stop and L225Stop were stimulated by Pfr phytochrome significantly”.

B5: Arabidopsis thaliana nucleoside diphosphate kinase 2 (NDPK2), wild type, SEQ ID NO: 1 (Arabidopsis thaliana) (protein)
chain: ASSSAESGIFLPHLVASMEDVEETYIMVKPDGIQRGLVGEIISRFEKKGFKLIGLKMFQCPKELAEEHYKELSAKSFFLTLIEYITSGPVVCMAWEGVGVVASARKLIGKTDPLQAEPGTIRGDLAVQTGRNIVHGSDSPENGKREIGLWFKEGELCKWDSALATWLRE
notes: hexamer
As for B5, the Km was 0.231 mM mM in data set [5] and 0.286 mM mM in data set [6].

B6: NDPK2 C-terminal deletion mutant L225Stop (protein)
chain: MEDVEETYIMVKPDGIQRGLVGEIISRFEKKGFKLIGLKMFQCPKELAEEHYKELSAKSFFLTLIEYITSGPVVCMAWEGVGVVASARKLIGKTDPLQAEPGTIRGDLAVQTGRNIVHGSDSPENGKREIGLWFKEGELCKWDSA
For B6, in data set [5], the Km is reported as 0.191 mM mM. Moreover, the “stimulation by Pfr phytochrome in the γ-phosphate exchange activity assay” value in data set [3] is “Mutants R230Stop and L225Stop were stimulated by Pfr phytochrome significantly”.

(Values after patent publication US20070136897A1, “Nucleic acid molecules encoding hyperactive nucleoside di-phosphate kinase 2 and uses thereof” (priority 2005, published 2007).)
